Results reported in patent US20160031999A1 (CSL, published 2016).
Changes are numbered by the printed parent chain. Where “and” joins values, the source holds several entries; their conditions need not be identical. Equal entries are not always repeated.

Legend:
[1] = target: T1, polypeptide of SEQ ID NO: 87 (human IL-11Rα 23-215 and mouse IL-11Rα 216-367, 8×HIS tag) (human and mouse (chimera)); experiment: Biacore, domain-swapped receptor; strong = KD of about 10 nM or lower
T1 chain: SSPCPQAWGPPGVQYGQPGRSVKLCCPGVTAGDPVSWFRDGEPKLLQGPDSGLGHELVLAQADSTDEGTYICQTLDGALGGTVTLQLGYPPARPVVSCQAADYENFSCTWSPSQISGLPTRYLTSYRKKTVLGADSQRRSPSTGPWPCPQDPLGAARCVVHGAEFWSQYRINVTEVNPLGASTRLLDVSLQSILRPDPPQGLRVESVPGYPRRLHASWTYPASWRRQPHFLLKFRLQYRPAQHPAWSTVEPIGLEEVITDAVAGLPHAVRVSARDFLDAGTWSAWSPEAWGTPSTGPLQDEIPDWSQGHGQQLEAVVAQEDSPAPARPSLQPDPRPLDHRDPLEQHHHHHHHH
Method: (§1) Various soluble forms of IL-11R comprising regions of hIL-11R and mIL-11R were produced and comprise sequences as set forth in SEQ ID NOs: 3 and 86-90 and the binding of antibodies 8E2, 8D10 and 8E4 to those polypeptides was determined using Western blotting or Biacore analysis.
(§2) For Biacore analysis, anti-human was IgG immobilized on the sensor surface at ˜10,000-12,000 RU and each antibody was captured at between 0.2 μg/ml and 0.5 μg/ml every cycle for 120 seconds. IL-11 receptors were injected over captured antibodies at varying concentrations, ranging from 1 μM down to 2.5 nM, including injections of buffer blanks. Association was monitored for 3-5 minutes, dissociation was monitored for 3-10 minutes. Approximate affinities were determined by fitting binding curves of each interaction to a 1:1 Kinetic Model.

[2] = target: T2, polypeptide of SEQ ID NO: 88 (human IL-11Rα 23-318 and mouse IL-11Rα 319-367, 8×HIS tag) (human and mouse (chimera)); experiment: as above
T2 chain: T1 chain with H215R, R225P, R226S, I252A, A284T
Method: as §1, §2

[3] = target: T3, K66R mutant of soluble human IL-11Rα (SEQ ID NO: 96) (human, UniProt Q14626 23-318); experiment: Biacore, antibody captured on anti-human IgG Fc, receptor injected; mean ± SE, N = 4
T3 construct: also called K44R
T3 sequence: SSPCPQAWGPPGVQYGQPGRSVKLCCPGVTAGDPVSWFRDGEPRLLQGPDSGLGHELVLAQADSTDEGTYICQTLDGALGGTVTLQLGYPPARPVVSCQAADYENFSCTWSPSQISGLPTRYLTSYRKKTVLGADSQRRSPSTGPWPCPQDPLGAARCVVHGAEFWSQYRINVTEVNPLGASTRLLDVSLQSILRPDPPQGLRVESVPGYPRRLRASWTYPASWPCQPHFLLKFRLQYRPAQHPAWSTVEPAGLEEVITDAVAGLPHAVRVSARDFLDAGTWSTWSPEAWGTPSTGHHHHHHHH
Method: (§3) Various point mutants of soluble forms of IL-11R were produced in which amino acids from mIL-11 were introduced into a soluble form of hIL-11 (SEQ ID NO: 85) (see Table 5 for positions of mutations relative to SEQ ID NO: 1 and for reference to the SEQ ID NO: of each polypeptide) and the binding of antibodies to those polypeptides or to polypeptides of SEQ ID NO: 3 or SEQ ID NO: 85 was determined using Biacore analysis or FACS.
(§4) Anti human IgG Fc specific antibody was chemically immobilized on a CM5 chip to ˜9000 RU. Antibodies were captured at about 0.3-1 μg/ml for 120 seconds on 2 spots in each flow cell. Adjacent spots consisting of only anti human IgG were used as a reference. IL-11 receptors were injected over the captured antibodies and reference spots at 40, 10, 5 and 2.5 nM in duplicate. Blank injections of buffer only were also performed in duplicate. Injection was performed for 3 minutes and dissociation monitored for a further 5 minutes.

[4] = target: T4, P65S mutant of soluble human IL-11Rα (SEQ ID NO: 97) (human, UniProt Q14626 23-318); experiment: as above
T4 sequence: T3 sequence with P43S, R44K
Method: as §3, §4

[5] = target: T5, polypeptide of SEQ ID NO: 85 (amino acids 23 to 318 of human IL-11Rα, serine at position 248, 8×HIS tag) (human, UniProt Q14626 23-318); experiment: Biacore, antibody captured on anti-human IgG Fc, receptor injected; N = 2, both values shown
T5 construct: also called WT D1/2; truncated hIL-11R
T5 sequence: T3 sequence with R44K, C226S
Method: as §3, §4

B1: antibody 8E4 (antibody, human IgG4 S228P, lambda, V domains shown)
VH: EVQLLESGGGLVQPGGSLRLSCAASGFTFSWYFMGWVRQAPGKGLEWVSYIYPSGGSTGYADSVKGRFTISRDNSKNTLYLQMHSLRAEDTAVYYCARDEGYCSSTSCYFDAFDIWGQGTMVTVSS
VL: QSALTQPPSASGSPGQSVAISCTGTSSDVGGYNFVSWYQQHPGKAPKLLIYEVTKRPSGVPDRFSGSKAGNTASLTVSGLQAEDEADYYCSSYGGSNNAGVFGTGTKVTVLG
Question: Does B1 bind [1]?
Answer: binds

Question: Does B1 bind [2]?
Answer: binds

Question: And the Kd [3]?
Answer: 5.6 nM

Question: And the Kd [4]?
Answer: 2.71 nM

Question: And the Kd [5]?
Answer: 3.2 nM and 3.7 nM

B2: antibody 8D10 (antibody, human IgG4 S228P, kappa, V domains shown)
VH: EVQLLESGGGLVQPGGSLRLSCAASGFTFSRYMMGWVRQAPGKGLEWVSSIVPSGGITIYADSVKGRFTISRDNSKNTLYLQMNSLRAEDTAVYYCARDHMGIVATDWGQGTLVTVSS
VL: DIQMTQSPSSLSASVGDRVTITCQASQDITNYLNWYLHKPGKAPKLLIYDASNLQTGVPSRFSGSGSGTDFTFTITSLQPEDFGTYYCQQYDTLHPSFGPGTTVDIKR
Question: What does the source list for B2?
Answer: binding result [1]: binds; binding result [2]: binds; Kd [3]: 1.3 nM; Kd [4]: 0.67 nM; Kd [5]: 0.57 nM and 0.69 nM
